In the DeepSol protein solubility set:

assay: soluble on expression in E. coli; label from the status in PepcDB or PDB records

Sequence | soluble on expression in E. coli
MSLGDKKYVKRLLGSCWDYPFSGSGVGITEREAVLRAFGEYTERFIGMYYQFIARDKMIFATYRDLDKMGLNALSPHSIQLFHKRQYQQKDFPYSKFCEDSLIKWMPGKSLITNEEVYVPASFVLTPYIPERGENLISPSVTTGSAAHSNLTQAIINGIYEVIERDTARIYWYGNLRSTKLKVDNKDIKDFIDFIKNKKDIEVIITYMENDLNIPTFMASIIIGKNNRKSVVTGLSSNINPINGLKKAITEAFHTYLWKLLTQPSPKQQLENFTDHVALYLDPKMYIHFIDFINSNEELSLQSLILASAVYSFDSAERHLNMLIRLLKNKVLDLIVVDITPEILRKTGIHVVKVIIPPLLSILAGHIQYLGDKRLYNEGHHHHHH | not soluble
MTNLVDKAAHSFATQNVVFQTLATASGKLVGVVTLNVEKALNALDLDMVRAMTVQLNLWKKDPLIACVVLDGSGEKAFCAGGDVRALYHASVAAKGQVTEVAKVFFEEEYRLDYLLHTYGKPVLVWGDGIVMGGGLGLMAGASHKVVTETSRIAMPEVTIGLYPDVGGSYFLNRMPGKMGLFLGLTAYHMNAADACYVGLADHYLNRDDKELMFDAMATLDWSDSPALNHQRLDTMINELSNQVDIPKGDSVLAESQEMIDRLMAGSLTDIVTRMSTLSTDEAWLSKACATMLAGSPISWHLAYIQTQLGTKLSLAQCFKWELTVSVNVCAKGDFCEGVRALLIDKDKQPKWQFADVQSVPNSVIEDILTSPWGEEHPLSQLS | soluble
MLEDLSQGKGSNHEKRKMESTAQITEEDSKLDEVVGLQKQICDLGTELTRQSSWWCIAHKDLQSQIDALIKENQEIRAELKTLKKQDAEATKACIGSPTPARASNTLPVYIKIEGTDSERTTSWDERDELSGSPPNRSTMATGGTDSQDEMLSFTSVDEKVIHMSSKFLQRSLGRMSPEPLSDSTFLDTESLADIWSSNPETSDGELLLHAQASRVIPCFSPNALWVQNIPTKSRAPKEIQQTSDTTKTDETKEKQHPNGKVERMLSDGRTIITFPNGTRKEISADKKTTLIRFFNGDMKKIKSNQKVIYYYADAQTMHTTYPDGVEVVQFPNKWTEKFYPDGSKETVFPDGTVKRLKDGCEETVFPDGTFVTVKRNGDKTIMFSNGEKEIHTARFKRKEFPDGTTKTVYCNGCQETKYASGRVRVKDEKGTVILDWK | not soluble
MALWGGRFSQAADQRFKQFNDSLRFDYRLAEQDIIGSVAWSKALVTVGVLNADEQQQLEQALSVLLEEVQANPHAILASDAEDIHSWVETKLIDKVGDLGKKLHTGRSRNDQVATDLKLWCKFQITELQTAVQQLQQALVMTAEANQDAVMPGYTHLQRAQPVTFAHWCLAYVEMLSRDESRLQDTLKRLDVSPLGCGALAGTAYAIDREQLAGWLGFASATRNSLDSVSDRDHVLELLSDASIGMVHLSRFAEDLIFFNSGEAAFVDLSDRVTSGSSLMPQKKNPDALELIRGKCGRVQGALTGMTMTLKGLPLAYNKDMQEDKEGLFDALDTWLDCLHMAALVLDGIQVKRPRCKEAAEQGYANATELADYLVAKGVPFREAHHIVGEAVVEAIRQGKALEALALSDLQQFSSVIGDDVYPILALQSCLDKRVAKGGVSPQQVASAIAEAKARLF | not soluble
MSSALISSEQALNDYFTALLDEETAEFESTLKPEPVWEMAPAIQSVPNKSYFDAEIEELELPNLEDVQRLLSQLESSNPVADLDLEQILEENTAKIAKIDPVVQPCSVVEEIQEWEIETSYVEPDIETPESVIEDDLEPESVDTEAEREIAIETSIEEPVAEVPVVEAQAVPETQAGRNKLGTWTNTIREKDFQVLYFDVNGVTFAVPLDELGGIHRMTTLNHLIGRPAWYLGLQTNRDSQLDVVDTAKWVMAEKLRDESYKQAYQYIVMLGESAWGLASTQLMGTELLSTEKVRWREQVGKRPWLAGMVKEKMCALIHVQALIAMLNAGLDVKALEN | not soluble
MGSDKIHHHHHHMLSRFSDSRPAVTVKNVALTYSGADKPALQIEDLTIPEGQCVVLCGQSDSGKSSFLKMLNGLTPEYYPAQLSGQIFLGDLDLQKSSLEEISRHIASVFQHPSTQFFHSQVLQELVFPCENQGLSREEIENRLAWVMELFGLASLSRRTISSLSGGQQQRLALAVTAMQGTDVLVLDEPTANLDQEGIAIVEDILKTLKSQGKTIIIAEHRLSYLSQLADRYLYFQDGQVVTDYLADEFLSRTEECRQDMGLRCYDSEPYGRAIAELADQFVNDKEGLLVENLSVSQKENTLYEIEKLCLASGQVVGLVGANGSGKTSLARYLVGLAEDKKSRISWQGQTLSSRQRLEKTAFVMQDVRLQLFAESVERELTLGRKNRAVDEHLVARFGLSDLLERHPVSLSGGEQQRVMIVASLLADKEIFIFDEPTSGLDLRRMQQVASALVDLKMKNKLVLLISHDEELLNLVCDKIVDIKQLK | not soluble
MGSDKIHHHHHHPAAVKKIIETGQTDNRVMHQLDILTNRFGGRVIGSDAYENAAEWMMREYKRWGIDVRLEEAGELPVGFNRGPWFGRLIGGDQAMDLHFVTPSYTSGTKGLQRGHVLIEPRTQEELDRMKHQLKGAWVLISGENVGWPVDRSAKGDSLRAAIKAENIEIEKQNAALMEENWSKGTKHAMKPLREMPGLFYKEMCEAGALGFIQSAPVPLRALYDRALLNDPHTTFDNLPEVCDIKLDEHQYKIIKQMVKERRNFWLEFDIRNHFKLGPVKYHNVVASIKGTKYPDEYVIISGHLDSYDVATGGIDCGTGIGPMMEAARMIALSGAKPKRTILFVAFAGEEFGLLGAKAYVKTHAKELGKIANLFNRDGGPTPPVGISVPQAMYDDFVEVCKPVKEIRADYPFEVKVAKPFKRPTQSGGTDASVFAVEGVPTFGFNTQDIKGYNFSYGEIWHTERDLYTKNIPEYQEHAATVTAVVALGIANLSKQLSREGMHKK | not soluble
MSLKRQLGKDVVQAARERIHILFDEFEHIYVSFSGGKDSGVLLHLVIEEARKRNRLPVDVLIVDLEAQYQHTIHFVERMVNKKEVNAFWVCLPLSLRNSVSQFQPKWICWDPDKKEDWIRALPLHASVINEEEYFSFYSFGMEFETFVSAFGEWYSEKKQCPCACLVAIRADESLNRYKTIKNQRKKRLKQYGWTTKASDVFYKAYLIYDWHVTDIWIANGRFNWDYNHVYDLMHKAGLSLAQQRLCQPFGDDQRKGLWLYQILEPQTWQKLVVRVEGCNFGARYSKKQGHILGYYKFDLPEGYTYRSYSKYLLNSMPPHLADHYRKRLFKFLNWWRKNGKEQGILSIPDFADKKLEAKKKVPSWRRICKVLIKNDYWCRGLSFGQSKKLTEHYIDLYEGYFRKEGHHHHHH | soluble
MGHHHHHHSHMKNYKAIGKIGEGTFSEVMKMQSLRDGNYYACKQMKQRFESIEQVNNLREIQALRRLNPHPNILMLHEVVFDRKSGSLALICELMDMNIYELIRGRRYPLSEKKIMHYMYQLCKSLDHIHRNGIFHRDVKPENILIKQDVLKLGDFGSCRSVYSKQPYTEYISTRWYRAPECLLTDGFYTYKMDLWSAGCVFYEIASLQPLFPGVNELDQISKIHDVIGTPAQKILTKFKQSRAMNFDFPFKKGSGIPLLTTNLSPQCLSLLHAMVAYDPDERIAAHQALQHPYFQEQRKTEKRAL | not soluble
MAHHHHHHMEANGTLVECKRGESDAVVFRFLIIDAPSPSSVPAYMKLLQRHNVMHIVRACGPTYNAEVFEKQGIVVHGWSFDDGASPTQTVIDNWLNLLEQEKNKSPPETIAVHCVSGLGRAPILVALALVEYGGMPPLDAVGYVRGRRKGAINQVQLNWLMRYKPRHQESNEGSLICARCTLM | soluble
MEVYIPSFRYEESDLERGYTVFKIEVLMNGRKHFVEKRYSEFHALHKKLKKCIKTPEIPSKHVRNWVPKVLEQRRQGLETYLQAVILENEELPKLFLDFLNVRHLPSLPKAESCGSFDETESEESSKLSHQPVLLFLRDPYVLPAASDFPNVVIEGVLHGIFYPHLQPR | soluble
MAHHHHHHMEHLSVTKNSQMNNLAAYNNQEANYSLAAPNQEEYSENDLFYTFYDKFNEIFLFIQNLKENKNDLEDEVDDNLIKTLHNLCLEFLNYIKQINDFGHMNLSKNDQDLIIESYEKFVRQCKQYNDKPQVKQLENEISNLLDLLFNNTSGRHNSWRSGKKRKKREKEKKKLISPP | soluble
MTNVFHHVRNFIEQQPAPAKTLEKSSSPNILYTALPKHWRSNKSFQEPFYVVLLTPVPDNTEVSIWAGNDEKPCEEVRNEKAKVHRQVAKFNDLRFVGRSGRGRKFHLTIVIHSAPMMVATVKNVIKVTVDGPRDARIPKPQGSLKRQAEQQTIFPNDIIRTPGPPMPMTMIPPPWFPLPMTQTFPPSFFPLISPGPHPSISAALWKIHSESMKTPIKQKVEQENVSLNTSTCLSSPSIFITPTSDDRKLKRPSSPRSITKSSETSINLIQETPESVESKRRRNVSITSSNSSSPTIWRPF | not soluble
MIKSALLVLEDGTQFHGRAIGAEGTAVGEVVFNTSMTGYQEILTDPSYSRQIVTLTYPHIGNVGTNASDEESSAVHAQGLVIRDLPLIASNYRNEEGLSEYLKRHNIVAIADIDTRKLTRLLREKGAQNGCIIVGELSDAALALEKAKAFPGLKGMDLAKEVTTKEMYQWLQGSWTLEGDLPAAKQPEDLPFHVVAYDYGVKRNILRMLVDRGCRLTVVPAQTPAEDVLKLNPDGIFLSNGPGDPEPCDYAITAIKRFLETDIPVFGICLGHQLLALASGAKTVKMKFGHHGGNHPVKDLDASCVMITAQNHGFAVDETSLPSNLRTTHVSLFDGSLQGLHRTDKAAFSFQGHPEASPGPHDAAPLFDHFIELIEAYRASSVSLNCSNSHK | not soluble
MAHHHHHHMGCFNSTDAVADQDPASGYMYTKPNAKGTKEALFGGLLYRITDEEEGGLAFYNNSKDYEFHIKYLFGADSELNAVGDTKLEMQDDGILAEVVVYPLETKPFVQGTIDGYETKLEALPLSEEYFALHPEIDEAAYYRRLEAPKSSRF | soluble
MKEDWYRKMYGPSASKTYETSLFNLITSEFGYIGGPDVVKLFTKKIVELNNQYYLREEFVRPGQMRWLVLKAGQKYSKSKKLSEMQLIPVTLTLINPEDIEDRITKVKKNELIEKLIVRLCNETKEQGGVLTETDIAILFRLSCTMISNHVTSYEKRTKKVIPRAGTEMDMGKSLTHKRLAFHNYKKKIPTSENARLIDHTPESVDRYIKDGTRIEKLYAAGYDEWNMAFFTGLPIYVVQEYVEIIKSYEKEKNDKKDIENQ | not soluble
MGSDKIHHHHHHMYMEKRQFIKDIAVNGDVNGLFLIASANQMQAKNGPFWRLEICDASGTLNAKIWSPLSASFETLTPGDVVHLEGRAGLFRDRIDISVDRMRVLAPYELEALDMGQFLVSSERDPAEMLTELLELCREVFTHRPWRKFVTGVLRNEELAEALKAAPAAKSVHHAYRGGLLEHILSVSGLCMRIADHYPEIDRQVLLAGAIFHDIGKAWELSGGLVNDYTDEGRLLGHIHIGLEQLEPFLRRSGLEHELAVHFKHLILSHHGEYEFGSPRRPKTREAMVLHYADNLDAKMAQLNSLFKGFEDGETGWTPFQPTLQRFLYNPVRTPETETVRRKRPETPREEQCSLLSKG | not soluble
MARKIRKLRKAEVNYITIKATLEAEKKEDYLKLALLTEKFKRAVELSIRLQLKGVKKSEGVKEVSRLILNNWWYSDSAWDYAKMLRKGAERS | not soluble
